Results taken from article PMC11030525.

Experiments:
AHA1, mouse = AHA1, mouse (UniProt Q8BK64); assay: mCherry antibody affinity purification (IP) with SILAC LC-MS; details: E14 ESCs; AA mutant in light media, EE mutant in heavy media; representative spectrum; mCherry EE:AA = 1.08 in the same panel
FKBP4, mouse = FKBP4, mouse (UniProt P30416); assay: as above; details: E14 ESCs; AA mutant in light media, EE mutant in heavy media; representative spectrum; mCherry EE:AA = 1.08 in the same panel
Sequence of FKBP4, mouse (P30416 whole entry): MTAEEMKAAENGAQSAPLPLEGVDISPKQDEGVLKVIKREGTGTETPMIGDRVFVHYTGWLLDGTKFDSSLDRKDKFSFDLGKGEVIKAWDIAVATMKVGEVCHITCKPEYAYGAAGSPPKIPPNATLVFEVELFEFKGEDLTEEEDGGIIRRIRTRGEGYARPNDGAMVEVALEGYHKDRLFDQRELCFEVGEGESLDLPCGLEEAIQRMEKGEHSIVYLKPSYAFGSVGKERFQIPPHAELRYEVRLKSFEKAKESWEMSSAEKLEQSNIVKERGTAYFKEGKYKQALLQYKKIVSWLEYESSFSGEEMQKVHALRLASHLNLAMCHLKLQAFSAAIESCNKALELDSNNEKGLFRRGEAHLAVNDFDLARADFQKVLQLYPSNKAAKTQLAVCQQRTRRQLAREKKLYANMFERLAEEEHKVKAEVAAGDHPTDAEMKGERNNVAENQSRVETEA

Sequence of mCherry-HSP90β-Wild type, P08238 S226E; S255E (P08238 whole entry S226E/S255E): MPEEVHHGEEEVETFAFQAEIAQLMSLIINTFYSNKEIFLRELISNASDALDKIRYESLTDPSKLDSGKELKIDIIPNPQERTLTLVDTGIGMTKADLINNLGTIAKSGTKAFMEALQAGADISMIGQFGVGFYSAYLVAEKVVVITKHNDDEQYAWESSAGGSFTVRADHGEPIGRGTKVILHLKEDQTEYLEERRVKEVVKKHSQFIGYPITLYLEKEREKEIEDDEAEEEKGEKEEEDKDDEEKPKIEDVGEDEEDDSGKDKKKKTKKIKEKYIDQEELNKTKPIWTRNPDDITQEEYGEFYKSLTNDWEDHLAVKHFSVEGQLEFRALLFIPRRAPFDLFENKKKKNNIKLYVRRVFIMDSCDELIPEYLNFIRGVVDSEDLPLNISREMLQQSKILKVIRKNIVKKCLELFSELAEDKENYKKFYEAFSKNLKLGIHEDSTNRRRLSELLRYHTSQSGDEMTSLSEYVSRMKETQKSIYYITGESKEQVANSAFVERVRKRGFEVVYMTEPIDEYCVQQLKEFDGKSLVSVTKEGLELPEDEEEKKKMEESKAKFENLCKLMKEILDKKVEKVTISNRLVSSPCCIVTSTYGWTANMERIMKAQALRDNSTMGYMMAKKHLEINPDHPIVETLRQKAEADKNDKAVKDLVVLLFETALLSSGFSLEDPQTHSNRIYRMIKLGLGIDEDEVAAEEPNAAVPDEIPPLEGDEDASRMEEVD
Sequence of AHA1, mouse (Q8BK64 whole entry): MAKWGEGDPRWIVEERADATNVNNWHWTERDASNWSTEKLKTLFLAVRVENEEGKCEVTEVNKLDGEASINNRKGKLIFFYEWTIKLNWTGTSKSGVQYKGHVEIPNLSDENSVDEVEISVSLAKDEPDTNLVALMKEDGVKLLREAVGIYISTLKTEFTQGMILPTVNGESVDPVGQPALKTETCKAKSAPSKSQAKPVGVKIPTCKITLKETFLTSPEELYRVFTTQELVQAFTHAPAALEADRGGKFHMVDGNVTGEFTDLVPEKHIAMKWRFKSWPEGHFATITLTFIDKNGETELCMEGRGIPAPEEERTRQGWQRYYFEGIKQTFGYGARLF

other: SILAC ratio EE:AA (AHA1, mouse): 1.69
other: SILAC ratio EE:AA (FKBP4, mouse): 1.74
Substance: mCherry-HSP90β-Wild type, P08238 S226E; S255E
